Consider one substance from patent US20130040360.

This series deals with full-length rat proMMP9(1-708) (SEQ ID NO:11).
Chain of full-length rat proMMP9(1-708) (SEQ ID NO:11) (chain, as listed by the source): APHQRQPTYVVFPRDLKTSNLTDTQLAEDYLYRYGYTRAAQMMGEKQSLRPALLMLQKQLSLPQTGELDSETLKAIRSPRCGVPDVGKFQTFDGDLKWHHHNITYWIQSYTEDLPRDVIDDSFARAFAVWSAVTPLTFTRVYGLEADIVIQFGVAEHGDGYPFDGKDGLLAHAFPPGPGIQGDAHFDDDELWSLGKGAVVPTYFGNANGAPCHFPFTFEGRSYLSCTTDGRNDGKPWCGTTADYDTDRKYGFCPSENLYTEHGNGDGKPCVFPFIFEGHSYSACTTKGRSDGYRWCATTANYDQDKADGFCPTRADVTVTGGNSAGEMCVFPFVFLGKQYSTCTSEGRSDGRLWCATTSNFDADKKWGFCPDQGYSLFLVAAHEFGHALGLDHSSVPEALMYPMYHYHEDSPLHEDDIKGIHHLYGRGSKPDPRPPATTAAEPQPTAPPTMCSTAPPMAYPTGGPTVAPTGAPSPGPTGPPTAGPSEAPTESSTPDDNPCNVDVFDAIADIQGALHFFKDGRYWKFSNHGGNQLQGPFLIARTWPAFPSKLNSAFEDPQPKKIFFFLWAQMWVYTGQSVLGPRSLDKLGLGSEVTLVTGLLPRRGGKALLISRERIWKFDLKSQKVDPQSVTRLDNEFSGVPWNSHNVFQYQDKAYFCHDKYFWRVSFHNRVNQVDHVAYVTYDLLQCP

Chain of human catalytic MMP3, MMP3(100-265) (SEQ ID NO:8) (chain, as listed by the source): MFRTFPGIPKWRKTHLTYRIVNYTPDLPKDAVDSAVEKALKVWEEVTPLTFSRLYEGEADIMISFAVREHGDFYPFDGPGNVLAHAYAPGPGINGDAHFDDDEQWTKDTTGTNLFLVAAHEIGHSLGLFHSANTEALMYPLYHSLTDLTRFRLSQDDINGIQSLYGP

“human catalytic MMP3, MMP3(100-265) (SEQ ID NO:8)”: the “proteolytic conversion of proMMP9 to catalytic MMP9” value is listed as “full-length rat proMMP9(1-708) (SEQ ID NO:11) converted to catalytic rat MMP9 by catalytic MMP3”.
